Laboratory results: US11708413B2 (priority 2016, dated 2023)

Columns and labels:
CD74 on ARP-1 (MM) cells = molecular target: T1, CD74 on ARP-1 (MM) cells (Homo sapiens, UniProt P04233); assay: Cell binding assay (FACS), ARP-1 (MM); settings: geometric mean fluorescent intensity, NB = no binding
T1 construct: endogenous in cells; host or cells: RPMI-6666, SU-DHL-6, ARD, ARP-1, RPMI-8226, OPM-2, BDCM, SUP-B15, JVM-13, K562
T1 sequence (P04233 1-296): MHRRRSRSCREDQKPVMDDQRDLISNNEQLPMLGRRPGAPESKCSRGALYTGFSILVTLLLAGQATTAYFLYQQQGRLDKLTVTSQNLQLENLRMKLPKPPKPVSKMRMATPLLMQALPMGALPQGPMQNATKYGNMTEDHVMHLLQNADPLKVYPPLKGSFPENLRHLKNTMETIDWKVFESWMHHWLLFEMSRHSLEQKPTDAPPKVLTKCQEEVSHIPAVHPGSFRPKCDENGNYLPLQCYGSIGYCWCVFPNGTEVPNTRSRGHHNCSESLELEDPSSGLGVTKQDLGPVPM
Experimental: (§1) Cell lines tested included B-lymphoma, multiple myeloma, and leukemia cells.
Cells were harvested and re-suspended in FACS buffer (DPBS buffer supplemented with 1% bovine serum albumin). […] Cells were washed twice with ice-cold FACS buffer and incubated with 5 ug/ml Alexa 647 labeled donkey anti-human IgG antibody (Jackson Immune-Research) on ice for another 60 mins. Unstained cells and cells stained with secondary antibody alone were used as controls. Samples were then washed twice using FACS buffer and analyzed using a BD FACS Canto system. Mean fluorescence intensities were fitted using non-linear regression analysis with one site specific binding equation on GraphPad Prism. Data was expressed as geometric mean fluorescent intensity vs. antibody concentration in nM.
as §1

[1] = molecular target: T2, CD74 on RPMI-6666 (HL) cells (Homo sapiens, UniProt P04233); assay: Cell binding assay (FACS), RPMI-6666 (HL); settings: NB = no binding
T2 construct: endogenous in cells; host or cells: RPMI-6666, SU-DHL-6, ARD, ARP-1, RPMI-8226, OPM-2, BDCM, SUP-B15, JVM-13, K562
T2 sequence (P04233 1-296): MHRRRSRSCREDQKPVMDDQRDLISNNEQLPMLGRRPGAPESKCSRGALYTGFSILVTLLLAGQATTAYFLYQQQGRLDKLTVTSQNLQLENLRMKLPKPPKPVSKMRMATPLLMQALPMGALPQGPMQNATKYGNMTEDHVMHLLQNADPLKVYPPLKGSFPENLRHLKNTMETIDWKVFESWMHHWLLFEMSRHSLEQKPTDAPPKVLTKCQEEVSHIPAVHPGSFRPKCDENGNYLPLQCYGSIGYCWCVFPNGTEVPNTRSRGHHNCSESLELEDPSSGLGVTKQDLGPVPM
Experimental: as §1
(§2) Cell lines were maintained in RPMI, high glucose (Cellgro-Mediatech; Manassas, Va.) supplemented with 20% heat-inactivated fetal bovine serum (Hyclone; Thermo Scientific; Waltham, Mass.), 2 mM glutamax (Invitrogen; Carlsbad, Calif.) and 1×Pencillin/streptomycin (Cellgro-Mediatech; Manassas, Va.). Cells were harvested and re-suspended in FACS buffer (DPBS buffer supplemented with 1% bovine serum albumin). […] Cells were washed twice with ice-cold FACS buffer and incubated with 5 ug/ml Alexa 647 labeled donkey anti-human IgG antibody (Jackson Immune-Research) on ice for another 60 mins. Unstained cells and cells stained with secondary antibody alone were used as controls. Samples were then washed twice using FACS buffer and analyzed using a BD FACS Canto system. Mean fluorescence intensities were fitted using non-linear regression analysis with one site specific binding equation on GraphPad Prism. Data was expressed as geometric mean fluorescent intensity vs. antibody concentration in nM.
(§3) Each of Conjugates A-F was evaluated for the ability to bind and kill cells expressing CD74. Cell lines tested included B-lymphoma, multiple myeloma, and leukemia cells. Controls included unconjugated anti-CD74 antibody.

[2] = molecular target: T3, CD74 on RPMI-8226 (MM) cells (Homo sapiens, UniProt P04233); assay: Cell binding assay (FACS), RPMI-8226 (MM); settings: NB = no binding
T3 construct: endogenous in cells; host or cells: RPMI-8226
T3 sequence (P04233 1-296): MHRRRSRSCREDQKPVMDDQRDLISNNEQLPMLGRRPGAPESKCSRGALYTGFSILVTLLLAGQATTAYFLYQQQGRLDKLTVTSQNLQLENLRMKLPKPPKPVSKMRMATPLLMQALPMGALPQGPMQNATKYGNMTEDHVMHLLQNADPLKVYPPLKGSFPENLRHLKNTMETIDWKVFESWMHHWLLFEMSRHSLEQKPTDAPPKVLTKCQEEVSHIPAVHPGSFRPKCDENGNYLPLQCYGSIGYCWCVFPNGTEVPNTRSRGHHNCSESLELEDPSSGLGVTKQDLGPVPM
Experimental: as §1, §2, §3

CD74 on ARD (MM) cells = molecular target: T4, CD74 on ARD (MM) cells (Homo sapiens, UniProt P04233); assay: Cell binding assay (FACS), ARD (MM); settings: NB = no binding
T4 construct: endogenous in cells; host or cells: RPMI-6666, SU-DHL-6, ARD, ARP-1, RPMI-8226, OPM-2, BDCM, SUP-B15, JVM-13, K562
T4 sequence (P04233 1-296): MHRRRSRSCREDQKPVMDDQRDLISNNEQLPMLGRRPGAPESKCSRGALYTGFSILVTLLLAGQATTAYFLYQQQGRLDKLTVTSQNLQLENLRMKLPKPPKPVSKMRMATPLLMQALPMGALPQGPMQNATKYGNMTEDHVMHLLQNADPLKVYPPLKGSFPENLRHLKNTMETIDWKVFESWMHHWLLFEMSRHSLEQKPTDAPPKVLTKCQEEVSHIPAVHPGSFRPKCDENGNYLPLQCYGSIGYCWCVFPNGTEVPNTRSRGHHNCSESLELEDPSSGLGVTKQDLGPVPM
Experimental: as §1, §2, §3

[3] = molecular target: T5, CD74 on SU-DHL-6 (NHL) cells (Homo sapiens, UniProt P04233); assay: Cell binding assay (FACS), SU-DHL-6 (NHL); settings: NB = no binding
T5 construct: endogenous in cells; host or cells: SU-DHL-6
T5 sequence (P04233 1-296): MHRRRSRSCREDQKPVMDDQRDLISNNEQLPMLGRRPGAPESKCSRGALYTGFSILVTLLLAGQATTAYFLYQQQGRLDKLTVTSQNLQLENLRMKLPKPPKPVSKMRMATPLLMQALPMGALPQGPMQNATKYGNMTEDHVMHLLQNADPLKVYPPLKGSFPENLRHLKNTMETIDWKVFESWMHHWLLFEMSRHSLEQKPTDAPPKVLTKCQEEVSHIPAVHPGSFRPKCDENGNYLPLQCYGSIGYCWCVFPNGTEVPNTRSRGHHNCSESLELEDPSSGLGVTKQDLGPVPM
Experimental: as §1, §2, §3

CD74 on BDCM (AML) cells = molecular target: T6, CD74 on BDCM (AML) cells (Homo sapiens, UniProt P04233); assay: Cell binding assay (FACS), BDCM (AML); settings: NB = no binding
T6 construct: endogenous in cells; host or cells: RPMI-6666, SU-DHL-6, ARD, ARP-1, RPMI-8226, OPM-2, BDCM, SUP-B15, JVM-13, K562
T6 sequence (P04233 1-296): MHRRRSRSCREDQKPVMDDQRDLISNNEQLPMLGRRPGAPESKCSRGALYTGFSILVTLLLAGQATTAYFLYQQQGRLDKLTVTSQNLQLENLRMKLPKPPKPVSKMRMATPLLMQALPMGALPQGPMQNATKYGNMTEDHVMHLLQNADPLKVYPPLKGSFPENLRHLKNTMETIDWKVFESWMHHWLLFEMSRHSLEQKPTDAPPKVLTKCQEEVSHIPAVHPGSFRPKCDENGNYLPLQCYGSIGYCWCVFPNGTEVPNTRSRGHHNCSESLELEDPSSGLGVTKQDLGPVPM
Experimental: as §1, §2, §3

[4] = molecular target: T7, CD74 on JVM-13 (CLL) cells (Homo sapiens, UniProt P04233); assay: Cell binding assay (FACS), JVM-13 (CLL); settings: NB = no binding
T7 construct: endogenous in cells; host or cells: RPMI-6666, SU-DHL-6, ARD, ARP-1, RPMI-8226, OPM-2, BDCM, SUP-B15, JVM-13, K562
T7 sequence (P04233 1-296): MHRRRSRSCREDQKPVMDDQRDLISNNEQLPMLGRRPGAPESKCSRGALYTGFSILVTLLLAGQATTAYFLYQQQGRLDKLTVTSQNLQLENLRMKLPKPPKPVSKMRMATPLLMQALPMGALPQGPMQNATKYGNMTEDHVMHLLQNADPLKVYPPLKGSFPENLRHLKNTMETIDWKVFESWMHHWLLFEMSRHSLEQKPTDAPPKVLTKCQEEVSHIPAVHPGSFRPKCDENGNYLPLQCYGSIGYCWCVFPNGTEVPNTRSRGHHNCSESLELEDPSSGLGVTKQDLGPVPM
Experimental: as §1, §2, §3

[5] = molecular target: T8, CD74 on SUP-B15 (ALL) cells (Homo sapiens, UniProt P04233); assay: Cell binding assay (FACS), SUP-B15 (ALL); settings: NB = no binding
T8 construct: endogenous in cells; host or cells: RPMI-6666, SU-DHL-6, ARD, ARP-1, RPMI-8226, OPM-2, BDCM, SUP-B15, JVM-13, K562
T8 sequence (P04233 1-296): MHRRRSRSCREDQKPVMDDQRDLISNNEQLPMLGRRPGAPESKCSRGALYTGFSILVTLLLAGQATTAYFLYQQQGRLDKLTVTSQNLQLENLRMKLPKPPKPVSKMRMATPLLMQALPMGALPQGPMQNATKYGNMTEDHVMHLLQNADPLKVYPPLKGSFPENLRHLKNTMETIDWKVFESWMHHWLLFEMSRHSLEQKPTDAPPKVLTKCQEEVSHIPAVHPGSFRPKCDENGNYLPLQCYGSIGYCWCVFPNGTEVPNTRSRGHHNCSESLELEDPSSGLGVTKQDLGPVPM
Experimental: as §1, §2, §3

[6] = FACS, geometric mean fluorescent intensity

B1: anti-CD74 (antibody, V domains shown)
VH: QVQLVESGGGVVQPGRSLRLSCAASGFNFSDYGMHWVRQAPGKGLEWVAVIWYDGSISYYADSVKGRFTISRDNSKNTLYLQMNSLRAEDTAVYYCARGGTVEHGAVYGTDVWGQGTTVTVSS
VL: DIQMTQSPSSVSASVGDRVTITCRASQGIGSWLAWYQQKPGKAPKLLIYAADRLQSGVPSRFSGSGSGTDFTLTISSLQPEDFATYYCQQYHTYPLTFGGGTKVEIK
With B1 as the molecule, how does the Bmax (CD74 on ARP-1 (MM) cells) read?
The Bmax was 341.

What about the Bmax [1, 6] of the same molecule?
The Bmax was 3879.

What about the Kd ([1]; cell binding) of the same molecule?
Its Kd is 2.3 nM.

What about the Bmax [2, 6] of the same molecule?
Its Bmax is 119.

What about the Kd ([2]; cell binding) of the same molecule?
The Kd was 3.6 nM.

What about the Bmax (CD74 on ARD (MM) cells; [6]) of the same molecule?
The Bmax was 190.

And the Kd (CD74 on ARD (MM) cells; cell binding)?
The Kd was 2.6 nM.

And the Bmax [3, 6]?
Its Bmax is 1565.

And the Kd ([3]; cell binding)?
The Kd was 2 nM.

And the Bmax (CD74 on BDCM (AML) cells; [6])?
Its Bmax is 3059.

What about the Kd (CD74 on BDCM (AML) cells; cell binding) of the same molecule?
The Kd was 4.5 nM.

What about the Bmax [4, 6] of the same molecule?
Its Bmax is 447.

What about the Kd ([4]; cell binding) of the same molecule?
The Kd was 2.5 nM.

And the Bmax [5, 6]?
Its Bmax is 680.

And the Kd ([5]; cell binding)?
Its Kd is 3.5 nM.
